Where a chain is given by its changes, count along the chain named. Values belong to the binder of their own block, whether it stands above or below them.
Legend:
[1] = molecular target: T1, human TL1A (human, UniProt O95150 72-251, limits assumed); test: SPR, bispecific captured on anti-human Fc chip, TL1A injected, 1:1 model
T1 construct: The assays name only 'human TL1A protein'; also called huTL1A; Hu TL1A
T1 sequence (looked up): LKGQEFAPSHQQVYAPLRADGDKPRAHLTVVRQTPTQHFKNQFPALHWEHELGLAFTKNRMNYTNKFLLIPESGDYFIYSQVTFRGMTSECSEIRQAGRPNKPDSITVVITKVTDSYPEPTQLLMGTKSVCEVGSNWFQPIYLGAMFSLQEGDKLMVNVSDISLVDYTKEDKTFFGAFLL
Experimental: (§1) On rate, off rate and equilibrium dissociation constant were calculated using 1:1 binding model on BIAevaluation software.

[2] = molecular target: T2, human TNF-α (human, UniProt P01375 77-233); test: SPR, bispecific captured on anti-human Fc chip, TNF injected, 1:1 model
T2 construct: also called Hu TNF; soluble hu TNF
T2 sequence (P01375 77-233 limits assumed): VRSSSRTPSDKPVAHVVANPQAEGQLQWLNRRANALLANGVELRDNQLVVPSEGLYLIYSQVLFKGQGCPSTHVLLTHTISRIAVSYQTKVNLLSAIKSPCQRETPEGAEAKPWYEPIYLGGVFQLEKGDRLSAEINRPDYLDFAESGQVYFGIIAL
Experimental: Goat anti-human Fc was first immobilized on SCM5 sensor chip using amine coupling. […] On rate, off rate and equilibrium dissociation constant were calculated using 1:1 binding model on BIAevaluation software.

[3] = molecular target: T3, human TL1A (human, UniProt O95150 72-251, limits assumed); test: hybridoma screening after immunisation with recombinant human TL1A soluble protein; member named through Tables A, C and D
T3 construct: also called huTL1A; TNFSF15
T3 sequence (looked up): T1 sequence (looked up)

[4] = molecular target: T1, human TL1A; test: SPR, mAb captured on anti-human Fc chip, TL1A injected, 1:1 model
Experimental: as §1

[5] = molecular target: T1, human TL1A; test: cell-based or functional assay
[6] = molecular target: T1, human TL1A; test: SPR, Fab captured on anti-huFab chip, TL1A injected, 1:1 model
Experimental: as §1

[7] = molecular target: T4, cynomolgus TL1A (cynomolgus monkey, UniProt G7PRK8 72-251); test: SPR, mAb captured on anti-human Fc chip, TL1A injected, 1:1 model
T4 construct: also called cyno TL1A; cynomolgus monkey TL1A
T4 sequence: T1 sequence (looked up) with F39L, I78V
Experimental: as §1

[8] = molecular target: T4, cynomolgus TL1A; test: cell-based or functional assay
[9] = molecular target: T4, cynomolgus TL1A; test: SPR, Fab captured on anti-huFab chip, TL1A injected, 1:1 model
Experimental: as §1

[10] = molecular target: T4, cynomolgus TL1A; test: SPR, Fab captured on anti-huFab chip, TL1A injected
Experimental: as §1

B3: anti-TL1A mAb 9C8 (antibody, human IgG1, kappa, N297G, V domains shown)
VH: QVQLQESGPGLVKPSETLSLTCTVSGGSISSYFWSWIRQPPGKGLEWIGYIYYSGNTKYNPSLKSRVTISIDTSKNQFSLKLSSVTAADTAVYYCARETGSYYGFDYWGQGTLVTVSS
VL: DIQMTQSPSSLSASVGDRVTITCRASQSINNYLNWYQQRPGKAPKLLIYAASSLQSGVPSRFSGSGSGTDFTLTISSLQPGDFATYYCQQSYSTPRTFGQGTKLEIKR
notes: also called PL-39116; iPS 285412
Kd [4]: 0.34 nM | NF-kB IC50 nM, huTL1A (0.2 nM) [5]: 0.131 nM

B4: anti-TL1A Fab 9C8 (Fab, V domains shown)
VH: B3 VH
VL: DIQMTQSPSSLSASVGDRVTITCRASQSINNYLNWYQQRPGKAPKLLIYAASSLQSGVPSRFSGSGSGTDFTLTISSLQPGDFATYYCQQSYSTPRTFGQGTKLEIK
notes: Fab fragment; the Fab's constant parts are not; also called 9C8 Fab; PL-39197
Kd [6]: < 0.1 nM | NF-kB IC50 nM, huTL1A (0.2 nM) [5]: 2.43 nM

B5: anti-TL1A Fab 2G11 (Fab, V domains shown)
VH: B3 VH with N56S, K58N, I69M, T99I, T112A
VL: B4 VL with R39K, K42I, A51T, T72S, G81E, Y87F, L104V
notes: Fab fragment; the Fab's constant parts are not; also called 2G11 Fab; PL-38025
Kd [6]: < 0.3 nM | NF-kB IC50 nM, huTL1A (0.2 nM) [5]: 0.551 nM

B6: anti-TL1A mAb 2G11 (antibody, human IgG1, kappa, N297G, V domains shown)
VH: B3 VH with N56S, K58N, I69M, T99I, T112A
VL: B3 VL with R39K, K42I, A51T, T72S, G81E, Y87F, L104V
notes: also called iPS 285396
Kd [4]: 1.1 nM | NF-kB IC50 nM, huTL1A (0.2 nM) [5]: 0.223 nM

B9: anti-TL1A Fab 23B3 (Fab, V domains shown)
VH: QVQLQQSGPGLVKPSQTLSLTCVISGDSVSTNSVAWNWIRQSPSRGLEWLGRTYYRSKWYNDYAVSVKSRITINPDTSKNQFSLQLNSVTPEDTAVYYCAREDGDSYYRYGMDVWGQGTTVTVSS
VL: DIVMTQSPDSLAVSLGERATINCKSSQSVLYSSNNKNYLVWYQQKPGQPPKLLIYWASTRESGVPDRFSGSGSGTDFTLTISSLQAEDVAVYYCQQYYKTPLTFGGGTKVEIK
notes: Fab fragment; the Fab's constant parts are not; also called 23B3 Fab; PL-38024
Kd [9]: 0.31 nM | koff [9]: 0.00016 s⁻¹ | kon [9]: 530000 M⁻¹ s⁻¹ | Kd [6]: 0.85 nM | koff [6]: 0.00064 s⁻¹ | kon [6]: 760000 M⁻¹ s⁻¹ | NF-kB IC50 nM, cyno TL1A (2 nM) [8]: 2.63 nM | NF-kB IC50 nM, huTL1A (0.2 nM) [5]: 2.99 nM

B10: anti-TL1A mAb 3C6 (antibody, human IgG1, kappa, N297G, V domains shown)
VH: QVQLVESGGGVVQPGRSLRLSCAASGFTFSSYGMHWVRQAPGKGLEWVAVISYDGNNKLYTDSVKGRFTISRDDSKSTLYLQMNSLRAEDTAVYYCARDPTVTLYYYYGMDVWGQGTTVTVSS
VL: DIQMTQSPSSLSASVGDRVTITCRTSQDIRDDLGWYQQKPGKAPKRLIYDASSLQSGVPSRFSGSGSGTEFTLTISSLQPEDFATYYCLQHNSYPPTFGQGTKVEIKR
notes: also called PL-39112; iPS 284112
Kd [7]: 2.4 nM | koff [7]: 0.0014 s⁻¹ | kon [7]: 570000 M⁻¹ s⁻¹ | Kd [4]: < 0.1 nM | koff [4]: < 5e-05 s⁻¹ | NF-kB IC50 nM, cyno TL1A (2 nM) [8]: > 100 nM | NF-kB IC50 nM, huTL1A (0.2 nM) [5]: 0.153 nM

B11: anti-TL1A Fab 3C6 (Fab, V domains shown)
VH: B10 VH
VL: DIQMTQSPSSLSASVGDRVTITCRTSQDIRDDLGWYQQKPGKAPKRLIYDASSLQSGVPSRFSGSGSGTEFTLTISSLQPEDFATYYCLQHNSYPPTFGQGTKVEIK
notes: Fab fragment; the Fab's constant parts are not; also called 3C6 Fab; PL-39193
Kd [6]: < 0.1 nM | koff [6]: < 5e-05 s⁻¹ | NF-kB IC50 nM, cyno TL1A (2 nM) [8]: > 100 nM | NF-kB IC50 nM, huTL1A (0.2 nM) [5]: 0.162 nM | binding result [10]: no binding (tested: 100 nM)

B12: anti-TL1A Fab 17E9 (Fab, V domains shown)
VH: B10 VH with F29L, I51M, T61A, D74N, S77K, P100E, V102E, M110I
VL: B11 VL with T25A, D28G, R30S, D31N, G34A, Y49F, D50A, Q100G
notes: Fab fragment; the Fab's constant parts are not; also called 17E9 Fab; PL-39194
Kd [6]: < 0.1 nM | koff [6]: < 5e-05 s⁻¹ | NF-kB IC50 nM, cyno TL1A (2 nM) [8]: > 100 nM | NF-kB IC50 nM, huTL1A (0.2 nM) [5]: 70.8 nM | binding result [10]: no binding (tested: 100 nM)

Continued, values first:

Kd [1]: 0.25 nM | koff [1]: 0.00013 s⁻¹ | kon [1]: 540000 M⁻¹ s⁻¹ | Kd [2]: 0.019 nM | koff [2]: 6.4e-05 s⁻¹ | kon [2]: 3.4e+06 M⁻¹ s⁻¹
B1: hetero Ig certolizumab var/2G11 var, iPS 349461 (bispecific antibody, human IgG1, kappa, N297G)
light 1: not shown
heavy 1: not shown
light 2: DIQMTQSPSSLSASVGDRVTITCRASQSINNYLNWYQKKPGKAPKLLIYATSSLQSGVPSRFSGSGSGTDFSLTISSLQPEDFATYFCQQSYSTPRTFGQGTKVEIKRTVAAPSVFIFPPSDEQLKSGTASVVCLLNNFYPREAKVQWKVDNALQSGNSQESVTEQDSKDSTYSLKSTLTLSKADYEKHKVYACEVTHQGLSSPVTKSFNRGEC
heavy 2: QVQLQESGPGLVKPSETLSLTCTVSGGSISSYFWSWIREPPGKGLEWIGYIYYSGSTNYNPSLKSRVTMSIDTSKNQFSLKLSSVTAADTAVYYCAREIGSYYGFDYWGQGTLVTVSSASTKGPSVFPLAPSSKSTSGGTAALGCLVKDYFPEPVTVSWNSGALTSGVHTFPAVLQSSGLYSLESVVTVPSSSLGTQTYICNVNHKPSNTKVDKKVEPKSCDKTHTCPPCPAPELLGGPSVFLFPPKPKDTLMISRTPEVTCVVVDVSHEDPEVKFNWYVDGVEVHNAKTKPCEEQYGSTYRCVSVLTVLHQDWLNGKEYKCKVSNKALPAPIEKTISKAKGQPREPQVYTLPPSRKEMTKNQVSLTCLVKGFYPSDIAVEWESNGQPENNYKTTPPVLKSDGSFFLYSKLTVDKSRWQQGNVFSCSVMHEALHNHYTQKSLSLSPGK
notes: Heterotetramer with one arm against TNF-α and one against TL1A; also called PL-42787

binding result [3]: binds
B2: 23B3 VH3 (antibody, human IgG1, kappa, N297G, V domains shown)
VH: EVQLLESGGGLVQPGGSLRLSCAISGDSVSTNSVAWNWIRQAPGKGLEWVSRTYYRSKWYNDYAVSVKGRFTISPDTSKNTFYLQMNSLRAEDTAVYYCAREDGDSYYRYGMDVWGQGTTVTVSS
VL: DIQMTQSPSSLSASVGDRVTITCRSSQSVLYSSNNKNYLVWYQQKPGKVPKLLIYWASTRESGVPSRFSGSGSGTDFTLTISSLQPEDFATYYCQQYYKTPLTFGGGTKVEIKR
notes: also called 23B3 HC3; iPS 325336

Kd [1]: 0.64 nM | koff [1]: 0.0004 s⁻¹ | kon [1]: 630000 M⁻¹ s⁻¹ | Kd [2]: 0.016 nM | koff [2]: 5.5e-05 s⁻¹ | kon [2]: 3.4e+06 M⁻¹ s⁻¹
B7: hetero Ig certolizumab var/23B3 VH4, iPS 349463 (bispecific antibody, human IgG1, kappa, N297G)
light 1: not shown
heavy 1: not shown
light 2: not shown
heavy 2: QVQLQESGPGLVKPSETLSLTCTISGDSVSTNSVAWNWIREPPGKGLEWIGRTYYRSKWYNDYAVSLKSRVTISPDTSKNQFSLKLSSVTAADTAVYYCAREDGDSYYRYGMDVWGQGTTVTVSSASTKGPSVFPLAPSSKSTSGGTAALGCLVKDYFPEPVTVSWNSGALTSGVHTFPAVLQSSGLYSLESVVTVPSSSLGTQTYICNVNHKPSNTKVDKKVEPKSCDKTHTCPPCPAPELLGGPSVFLFPPKPKDTLMISRTPEVTCVVVDVSHEDPEVKFNWYVDGVEVHNAKTKPCEEQYGSTYRCVSVLTVLHQDWLNGKEYKCKVSNKALPAPIEKTISKAKGQPREPQVYTLPPSRKEMTKNQVSLTCLVKGFYPSDIAVEWESNGQPENNYKTTPPVLKSDGSFFLYSKLTVDKSRWQQGNVFSCSVMHEALHNHYTQKSLSLSPGK
notes: Heterotetramer with one arm against TNF-α and one against TL1A; also called PL-42788

Kd [7]: 1.4 nM | koff [7]: 0.00032 s⁻¹ | kon [7]: 230000 M⁻¹ s⁻¹ | Kd [4]: 0.89 nM | koff [4]: 0.00042 s⁻¹ | kon [4]: 470000 M⁻¹ s⁻¹ | NF-kB IC50 nM, cyno TL1A (2 nM) [8]: 0.619 nM | NF-kB IC50 nM, huTL1A (0.2 nM) [5]: 0.089 nM
B8: anti-TL1A mAb 23B3 (antibody, human IgG1, kappa, N297G, V domains shown)
VH: B9 VH
VL: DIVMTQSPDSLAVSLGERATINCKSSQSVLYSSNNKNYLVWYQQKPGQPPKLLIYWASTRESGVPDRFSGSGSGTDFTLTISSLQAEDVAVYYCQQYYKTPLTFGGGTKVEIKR
notes: also called iPS 290043

Kd [7]: 2.8 nM | koff [7]: 0.002 s⁻¹ | kon [7]: 730000 M⁻¹ s⁻¹ | Kd [4]: 0.22 nM | koff [4]: 5.3e-05 s⁻¹ | kon [4]: 250000 M⁻¹ s⁻¹ | NF-kB IC50 nM, cyno TL1A (2 nM) [8]: > 100 nM | NF-kB IC50 nM, huTL1A (0.2 nM) [5]: 0.168 nM
B13: anti-TL1A mAb 17E9 (antibody, human IgG1, kappa, N297G, V domains shown)
VH: B10 VH with F29L, I51M, T61A, D74N, S77K, P100E, V102E, M110I
VL: B10 VL with T25A, D28G, R30S, D31N, G34A, Y49F, D50A, Q100G
notes: also called PL-39113; iPS 284078
